Assay results reported in IntAct's records for PubMed 31515488.

B1: Dynein light chain 2, cytoplasmic (Homo sapiens), Q96FJ2 (parent)
chain: MSDRKAVIKNADMSEDMQQDAVDCATQAMEKYNIEKDIAAYIKKEFDKKYNPTWHCIVGRNFGSYVTHETKHFIYFYLGQVAILLFKSG
partner: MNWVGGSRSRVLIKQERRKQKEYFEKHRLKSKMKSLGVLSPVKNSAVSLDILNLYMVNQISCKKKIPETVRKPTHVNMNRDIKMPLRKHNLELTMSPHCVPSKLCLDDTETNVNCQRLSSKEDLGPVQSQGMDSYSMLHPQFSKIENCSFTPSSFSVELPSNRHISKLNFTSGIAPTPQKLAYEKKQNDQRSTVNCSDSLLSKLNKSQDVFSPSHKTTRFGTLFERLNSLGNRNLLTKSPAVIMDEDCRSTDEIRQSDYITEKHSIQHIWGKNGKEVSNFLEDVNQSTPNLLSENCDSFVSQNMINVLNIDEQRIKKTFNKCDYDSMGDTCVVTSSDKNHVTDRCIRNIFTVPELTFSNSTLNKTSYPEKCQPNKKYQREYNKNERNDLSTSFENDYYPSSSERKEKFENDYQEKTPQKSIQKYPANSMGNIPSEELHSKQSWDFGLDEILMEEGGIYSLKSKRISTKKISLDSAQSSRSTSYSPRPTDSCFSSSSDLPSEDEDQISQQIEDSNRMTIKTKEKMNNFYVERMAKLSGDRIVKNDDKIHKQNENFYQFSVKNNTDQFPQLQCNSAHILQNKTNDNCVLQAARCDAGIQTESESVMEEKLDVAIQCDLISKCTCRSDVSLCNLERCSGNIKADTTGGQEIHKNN
B2: Amphiphysin (Homo sapiens), P49418 (parent)
chain: MADIKTGIFAKNVQKRLNRAQEKVLQKLGKADETKDEQFEEYVQNFKRQEAEGTRLQRELRGYLAAIKGMQEASMKLTESLHEVYEPDWYGREDVKMVGEKCDVLWEDFHQKLVDGSLLTLDTYLGQFPDIKNRIAKRSRKLVDYDSARHHLEALQSSKRKDESRISKAEEEFQKAQKVFEEFNVDLQEELPSLWSRRVGFYVNTFKNVSSLEAKFHKEIAVLCHKLYEVMTKLGDQHADKAFTIQGAPSDSGPLRIAKTPSPPEEPSPLPSPTASPNHTLAPASPAPARPRSPSQTRKGPPVPPLPKVTPTKELQQENIISFFEDNFVPEISVTTPSQNEVPEVKKEETLLDLDFDPFKPEVTPAGSAGVTHSPMSQTLPWDLWTTSTDLVQPASGGSFNGFTQPQDTSLFTMQTDQSMICNLAESEQAPPTEPKAEEPLAAVTPAVGLDLGMDTRAEEPVEEAVIIPGADADAAVGTLVSAAEGAPGEEAEAEKATVPAGEGVSLEEAKIGTETTEGAESAQPEAEELEATVPQEKVIPSVVIEPASNHEEEGENEITIGAEPKETTEDAAPPGPTSETPELATEQKPIQDPQPTPSAPAMGAADQLASAREASQELPPGFLYKVETLHDFEAANSDELTLQRGDVVLVVPSDSEADQDAGWLVGVKESDWLQYRDLATYKGLFPENFTRRLD
partner: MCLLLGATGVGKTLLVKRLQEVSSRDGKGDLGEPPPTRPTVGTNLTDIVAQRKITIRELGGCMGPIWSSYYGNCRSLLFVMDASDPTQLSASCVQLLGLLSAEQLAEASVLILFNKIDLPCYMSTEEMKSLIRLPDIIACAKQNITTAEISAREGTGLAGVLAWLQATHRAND
B3: Notch homolog 2 N-terminal-like protein A (Homo sapiens), Q7Z3S9 (parent)
chain: MCVTYHNGTGYCKCPEGFLGEYCQHRDPCEKNRCQNGGTCVAQAMLGKATCRCASGFTGEDCQYSTSHPCFVSRPCLNGGTCHMLSRDTYECTCQVGFTGKECQWTDACLSHPCANGSTCTTVANQFSCKCLTGFTGQKCETDVNECDIPGHCQHGGTCLNLPGSYQCQCLQGFTGQYCDSLYVPCAPSPCVNGGTCRQTGDFTFECNCLPETVRRGTELWERDREVWNGKEHDEN
partner: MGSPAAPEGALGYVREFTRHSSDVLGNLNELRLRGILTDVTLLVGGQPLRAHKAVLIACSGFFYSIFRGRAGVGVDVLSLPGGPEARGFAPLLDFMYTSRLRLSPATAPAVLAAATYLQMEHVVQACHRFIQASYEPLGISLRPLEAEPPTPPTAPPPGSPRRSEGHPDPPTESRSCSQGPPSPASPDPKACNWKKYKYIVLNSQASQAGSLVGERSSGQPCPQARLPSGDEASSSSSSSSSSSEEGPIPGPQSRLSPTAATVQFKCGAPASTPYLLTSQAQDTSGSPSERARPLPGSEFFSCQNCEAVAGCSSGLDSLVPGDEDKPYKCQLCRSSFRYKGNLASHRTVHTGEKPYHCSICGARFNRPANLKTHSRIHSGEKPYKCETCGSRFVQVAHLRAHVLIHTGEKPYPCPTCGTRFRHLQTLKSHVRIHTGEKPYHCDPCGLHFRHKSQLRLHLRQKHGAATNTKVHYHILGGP
B4: Prelamin-A/C (Homo sapiens), P02545 (parent)
chain: METPSQRRATRSGAQASSTPLSPTRITRLQEKEDLQELNDRLAVYIDRVRSLETENAGLRLRITESEEVVSREVSGIKAAYEAELGDARKTLDSVAKERARLQLELSKVREEFKELKARNTKKEGDLIAAQARLKDLEALLNSKEAALSTALSEKRTLEGELHDLRGQVAKLEAALGEAKKQLQDEMLRRVDAENRLQTMKEELDFQKNIYSEELRETKRRHETRLVEIDNGKQREFESRLADALQELRAQHEDQVEQYKKELEKTYSAKLDNARQSAERNSNLVGAAHEELQQSRIRIDSLSAQLSQLQKQLAAKEAKLRDLEDSLARERDTSRRLLAEKEREMAEMRARMQQQLDEYQELLDIKLALDMEIHAYRKLLEGEEERLRLSPSPTSQRSRGRASSHSSQTQGGGSVTKKRKLESTESRSSFSQHARTSGRVAVEEVDEEGKFVRLRNKSNEDQSMGNWQIKRQNGDDPLLTYRFPPKFTLKAGQVVTIWAAGAGATHSPPTDLVWKAQNTWGCGNSLRTALINSTGEEVAMRKLVRSVTVVEDDEDEDGDDLLHHHHGSHCSSSGDPAEYNLRSRTVLCGTCGQPADKASASGSGAQVGGPISSGSSASSVTVTRSYRSVGGSGGGSFGDNLVTRSYLLGNSSPRTQSPQNCSIM
partner: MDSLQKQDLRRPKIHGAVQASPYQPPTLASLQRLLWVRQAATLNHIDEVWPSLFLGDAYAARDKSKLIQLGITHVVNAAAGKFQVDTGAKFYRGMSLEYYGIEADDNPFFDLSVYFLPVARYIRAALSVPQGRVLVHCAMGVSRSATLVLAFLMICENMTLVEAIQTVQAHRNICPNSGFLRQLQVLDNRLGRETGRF
B5: Serine/threonine-protein kinase PAK 5 (Homo sapiens), Q9P286 (parent)
chain: MFGKKKKKIEISGPSNFEHRVHTGFDPQEQKFTGLPQQWHSLLADTANRPKPMVDPSCITPIQLAPMKTIVRGNKPCKETSINGLLEDFDNISVTRSNSLRKESPPTPDQGASSHGPGHAEENGFITFSQYSSESDTTADYTTEKYREKSLYGDDLDPYYRGSHAAKQNGHVMKMKHGEAYYSEVKPLKSDFARFSADYHSHLDSLSKPSEYSDLKWEYQRASSSSPLDYSFQFTPSRTAGTSGCSKESLAYSESEWGPSLDDYDRRPKSSYLNQTSPQPTMRQRSRSGSGLQEPMMPFGASAFKTHPQGHSYNSYTYPRLSEPTMCIPKVDYDRAQMVLSPPLSGSDTYPRGPAKLPQSQSKSGYSSSSHQYPSGYHKATLYHHPSLQSSSQYISTASYLSSLSLSSSTYPPPSWGSSSDQQPSRVSHEQFRAALQLVVSPGDPREYLANFIKIGEGSTGIVCIATEKHTGKQVAVKKMDLRKQQRRELLFNEVVIMRDYHHDNVVDMYSSYLVGDELWVVMEFLEGGALTDIVTHTRMNEEQIATVCLSVLRALSYLHNQGVIHRDIKSDSILLTSDGRIKLSDFGFCAQVSKEVPKRKSLVGTPYWMAPEVISRLPYGTEVDIWSLGIMVIEMIDGEPPYFNEPPLQAMRRIRDSLPPRVKDLHKVSSVLRGFLDLMLVREPSQRATAQELLGHPFLKLAGPPSCIVPLMRQYRHH
partner: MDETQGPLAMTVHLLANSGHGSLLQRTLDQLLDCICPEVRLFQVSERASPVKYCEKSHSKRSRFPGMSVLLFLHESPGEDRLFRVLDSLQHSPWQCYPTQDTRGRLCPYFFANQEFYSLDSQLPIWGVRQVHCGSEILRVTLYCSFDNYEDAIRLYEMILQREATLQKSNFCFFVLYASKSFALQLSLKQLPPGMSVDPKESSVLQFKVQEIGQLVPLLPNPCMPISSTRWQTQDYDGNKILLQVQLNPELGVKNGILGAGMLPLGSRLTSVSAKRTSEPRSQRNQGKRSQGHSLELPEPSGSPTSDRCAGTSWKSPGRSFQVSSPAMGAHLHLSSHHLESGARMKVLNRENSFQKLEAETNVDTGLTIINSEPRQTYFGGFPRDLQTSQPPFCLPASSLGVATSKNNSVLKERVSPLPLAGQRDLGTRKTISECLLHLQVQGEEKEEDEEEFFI

Variants of: B1
Details: with rdic1_human REDIC1, Q86WS4

| Variant | effect of a mutation on the interaction |
| --- | --- |
| E30D | with no effect |

Variants of: B2
Details: with arl16_human ARL16, Q0P5N6

| Variant | effect of a mutation on the interaction |
| --- | --- |
| M376I | with no effect |

Variants of: B3
Details: with bcl6b_human BCL6B

| Variant | effect of a mutation on the interaction |
| --- | --- |
| R74Q | with no effect |
| A115T | with no effect |

Variants of: B4
Details: with ds13b_human DUSP13B

| Variant | effect of a mutation on the interaction |
| --- | --- |
| I299V | with no effect |

Variants of: B5
Details: with FAM124B

| Variant | effect of a mutation on the interaction |
| --- | --- |
| R335P | with no effect |
